Numbering of substitutions follows the chain as printed. Names and notes keep the numbering of the source.
How the values were obtained:
fibrinogen fragment D [1] = biological target: T1, fibrinogen fragment D (human, UniProt P02671 130-216; P02675 164-491; P02679 114-432); test: pull-down
T1 sequence 1: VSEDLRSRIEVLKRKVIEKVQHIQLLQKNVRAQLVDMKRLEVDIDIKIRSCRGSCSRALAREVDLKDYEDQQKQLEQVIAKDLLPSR
T1 sequence 2: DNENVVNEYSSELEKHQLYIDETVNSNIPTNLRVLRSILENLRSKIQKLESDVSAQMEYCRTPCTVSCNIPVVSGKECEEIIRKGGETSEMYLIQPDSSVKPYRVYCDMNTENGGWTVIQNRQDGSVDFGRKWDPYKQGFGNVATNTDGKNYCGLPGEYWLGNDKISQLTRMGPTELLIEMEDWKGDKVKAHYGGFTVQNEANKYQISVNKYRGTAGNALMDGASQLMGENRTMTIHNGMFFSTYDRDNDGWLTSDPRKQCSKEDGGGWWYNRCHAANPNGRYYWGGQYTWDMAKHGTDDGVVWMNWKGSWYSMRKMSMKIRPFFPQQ
T1 sequence 3: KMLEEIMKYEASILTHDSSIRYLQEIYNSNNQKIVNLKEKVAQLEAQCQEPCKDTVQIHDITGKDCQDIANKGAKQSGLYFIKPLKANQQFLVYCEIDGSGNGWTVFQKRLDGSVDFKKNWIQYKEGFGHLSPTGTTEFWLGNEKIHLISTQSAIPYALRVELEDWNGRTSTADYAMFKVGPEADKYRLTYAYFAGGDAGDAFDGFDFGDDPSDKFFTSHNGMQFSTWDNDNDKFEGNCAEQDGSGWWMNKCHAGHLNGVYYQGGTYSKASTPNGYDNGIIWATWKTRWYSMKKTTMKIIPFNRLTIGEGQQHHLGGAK

crystal structure = biological target: the molecule itself; test: crystal structure
fibrinogen fragment D [2] = biological target: T1, fibrinogen fragment D; test: crystal structure

B1: M1 B2C (residues 162-189 deleted and inserted after C-terminal residue 453) (natural protein, UniProt Q99XV0 42-453, looked up)
chain: NGDGNPREVIEDLAANNPAIQNIRLRYENKDLKARLENAMEVAGRDFKRAEELEKAKQALEDQRKDLETKLKELQQDYDLAKESTSWDRQRLEKELEEKKEALELAIDQASRDYHRATALEKELETITREQEINRNLLGNAKLELDQLSSEKEQLTIEKAKLEEEKQISDASRQSLRRDLDASREAKKQVEKDLANLTAELDKVKEDKQISDASRQGLRRDLDASREAKKQVEKDLANLTAELDKVKEEKQISDASRQGLRRDLDASREAKKQVEKALEEANSKLAALEKLNKELEESKKLTEKEKAELQAKLEAEAKALKEQLAKQAEELAKLRAGKASDSQTPDTKPGNKAVPGKGQAPQAGTKPNQNKAPMKETKRQLPSTEKELEEKKKALELAIDQASQDYNRANVL
B1: binds (fibrinogen fragment D [1]).

B2: M1^BC1 (M1 fragment with B-repeats, S-region and first C-repeat) (domain or fragment, UniProt Q99XV0 128-263, looked up)
chain: WDRQRLEKELEEKKEALELAIDQASRDYHRATALEKELEEKKKALELAIDQASQDYNRANVLEKELETITREQEINRNLLGNAKLELDQLSSEKEQLTIEKAKLEEEKQISDASRQSLRRDLDASREAKKQVEKDL
With B2 the “stoichiometry N” value (crystal structure) was 2.

B3: selenomethionine-substituted M1^BC1(I148M) (domain or fragment, UniProt Q99XV0 128-263, looked up)
chain: B2 chain with I21M
modifications: selenomethionine-substituted
B3: binds (fibrinogen fragment D [2]).

Source: publication PMC3268815 (Nature, 2011)
